The experiment concerns the target otc_yeast ARG3 (UniProt P05150).

Results on one substance are retold here after IntAct's records for PubMed 12679340.

Chain of Arginase (Saccharomyces cerevisiae), P00812 C321R;C326T (P00812 whole entry C321R/C326T): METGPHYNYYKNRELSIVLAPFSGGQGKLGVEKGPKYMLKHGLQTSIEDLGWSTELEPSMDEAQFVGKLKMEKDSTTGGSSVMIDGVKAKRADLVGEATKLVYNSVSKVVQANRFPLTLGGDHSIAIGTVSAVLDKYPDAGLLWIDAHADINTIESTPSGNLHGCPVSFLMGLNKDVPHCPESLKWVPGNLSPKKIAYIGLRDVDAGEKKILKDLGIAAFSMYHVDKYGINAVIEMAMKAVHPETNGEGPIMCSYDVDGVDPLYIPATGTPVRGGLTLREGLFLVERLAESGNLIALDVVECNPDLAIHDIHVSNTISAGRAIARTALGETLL
Chain of otc_yeast ARG3 (P05150 whole entry): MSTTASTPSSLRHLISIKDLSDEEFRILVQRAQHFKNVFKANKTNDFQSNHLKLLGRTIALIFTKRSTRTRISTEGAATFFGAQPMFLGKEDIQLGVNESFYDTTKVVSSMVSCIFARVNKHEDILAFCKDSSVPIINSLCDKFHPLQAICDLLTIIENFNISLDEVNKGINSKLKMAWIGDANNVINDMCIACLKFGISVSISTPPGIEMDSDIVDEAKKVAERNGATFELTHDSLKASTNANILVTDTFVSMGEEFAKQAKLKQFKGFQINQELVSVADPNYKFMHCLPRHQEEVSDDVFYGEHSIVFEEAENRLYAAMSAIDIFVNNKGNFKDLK

In the case of “Arginase (Saccharomyces cerevisiae), P00812 C321R;C326T”, the “effect of a mutation on the interaction” value is “decreasing interaction”.
